The supplement of paper PMC7877785
± gives the uncertainty stated by the source.

Test: self-splicing fitness, log relative to wild type (ln ratio); higher = more splicing; Tetrahymena group I intron in knt gene, E. coli kanamycin selection, DiMSum; sequences stand for … in CUCUCU…GGAGGGAAAAGUUAUCAGGCAUGCACCUGGUAGCUAGUCUUUAAACCAAUAGAUUGCAUCGGUUUAAAAGGCAAGACCGUCAAAUUGCGGGAAAGGGGUCAACAGCCGUUCAGUACCAAGUCUCAGGGGAAACUUUGAGAUGGCCUUGCAAAGGGUAUGGUAAUAAGCUGACGGACAUGGUCCUAACCACGCAGCCAAGUCCUAAGUCAACAGAUCUUCUGUUGAUAUGGAUGCAGUUCACAGACUAAAUGUCGGUCGGGGAAGAUGUAUUCUUCUCAUAAGAUAUAGUCGGACCUCUCCUUAAUGGGAGCUAGCGGAUGAAGUGAUGCAACACUGGAGCCGCUGGGAACUAAUUUGUAUGCGAAAGUAUAUUGAUUAGUUUUGGAGUACUCGUGGUCG
How it was run: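 A randomised library covering all eight P1ex-region intron nucleotides was built with the intron in the knt kanamycin-resistance gene on pET-22b(+) and held in E. coli BL21(DE3). Cells were grown overnight at 37°C or 30°C on LB agar, with or without 25 μg/mL kanamycin, plus 100 μg/mL carbenicillin, 50 μM IPTG and 0.2% rhamnose, and pooled colonies were amplicon-sequenced on an Illumina HiSeq 2500. DiMSum fitness is the error-weighted combination of wild-type-normalised replicate fold changes, kanamycin versus none.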

With CCUAAGCAAUAUUACGAGUG the “self-splicing fitness (ln)” value (30 °C) was -0.812 ± 0.045 and the “self-splicing fitness (ln)” value (37 °C) was -0.282 ± 0.073.

For UAACAGCAAUAUUACGCAUA, the “self-splicing fitness (ln)” value (30 °C) was -0.955 ± 0.075 and the “self-splicing fitness (ln)” value (37 °C) was -0.0703 ± 0.069.

In the case of GCUAAGCAAUAUUACGCCGU, the “self-splicing fitness (ln)” value (30 °C) is reported as -3.45 ± 0.3 and the “self-splicing fitness (ln)” value (37 °C) is reported as -0.927 ± 0.31.

With UCCGAGCAAUAUUACGUGAA the “self-splicing fitness (ln)” value (30 °C) was -3.29 ± 0.17 and the “self-splicing fitness (ln)” value (37 °C) was -1.16 ± 0.15.

For UGGCAGCAAUAUUACGGGGA, the “self-splicing fitness (ln)” value (30 °C) was -2.26 ± 0.13 and the “self-splicing fitness (ln)” value (37 °C) was -2.03 ± 0.14.

In the case of AGCGAGCAAUAUUACGGACA, the “self-splicing fitness (ln)” value (30 °C) is reported as -2.53 ± 0.37 and the “self-splicing fitness (ln)” value (37 °C) is reported as -2.94 ± 0.34.

With GCUAAGCAAUAUUACGCAUG the “self-splicing fitness (ln)” value (30 °C) was -2.51 ± 0.16 and the “self-splicing fitness (ln)” value (37 °C) was -2.09 ± 0.15.

For AAUCAGCAAUAUUACGCCAA, the “self-splicing fitness (ln)” value (30 °C) was -1.61 ± 0.14 and the “self-splicing fitness (ln)” value (37 °C) was -0.855 ± 0.15.

For GGAAAGCAAUAUUACGCCAG, the “self-splicing fitness (ln)” value (37 °C) was -0.912 ± 0.35.

In the case of GCGAAGCAAUAUUACGACUU, the “self-splicing fitness (ln)” value (30 °C) is reported as -1.4 ± 0.1 and the “self-splicing fitness (ln)” value (37 °C) is reported as -0.741 ± 0.12.

For GAGCAGCAAUAUUACGUCUC, the “self-splicing fitness (ln)” value (30 °C) was -2.48 ± 0.15 and the “self-splicing fitness (ln)” value (37 °C) was -2.23 ± 0.22.

In the case of UGUAAGCAAUAUUACGUCAG, the “self-splicing fitness (ln)” value (30 °C) is reported as -1.14 ± 0.093 and the “self-splicing fitness (ln)” value (37 °C) is reported as -0.0311 ± 0.11.

For UGUUAGCAAUAUUACGCUCG, the “self-splicing fitness (ln)” value (30 °C) was -0.015 ± 0.18 and the “self-splicing fitness (ln)” value (37 °C) was -0.0235 ± 0.21.

In the case of GAGCAGCAAUAUUACGGCCA, the “self-splicing fitness (ln)” value (30 °C) is reported as -0.255 ± 0.097 and the “self-splicing fitness (ln)” value (37 °C) is reported as -0.361 ± 0.14.

With UGUAAGCAAUAUUACGCAGA the “self-splicing fitness (ln)” value (30 °C) was -3.67 ± 0.42 and the “self-splicing fitness (ln)” value (37 °C) was -1.72 ± 0.34.

With UUCGAGCAAUAUUACGUAAU the “self-splicing fitness (ln)” value (30 °C) was -2.06 ± 0.26 and the “self-splicing fitness (ln)” value (37 °C) was -1.9 ± 0.36.

For GGGCAGCAAUAUUACGGGUC, the “self-splicing fitness (ln)” value (30 °C) was -2.9 ± 0.25 and the “self-splicing fitness (ln)” value (37 °C) was -2.02 ± 0.23.

In the case of UGCUAGCAAUAUUACGAGCG, the “self-splicing fitness (ln)” value (30 °C) is reported as -2.86 ± 0.2 and the “self-splicing fitness (ln)” value (37 °C) is reported as -0.792 ± 0.17.

For GUAGAGCAAUAUUACGGCCC, the “self-splicing fitness (ln)” value (30 °C) was -1.36 ± 0.29 and the “self-splicing fitness (ln)” value (37 °C) was -0.935 ± 0.32.

For GGCAAGCAAUAUUACGCAUU, the “self-splicing fitness (ln)” value (30 °C) was -0.374 ± 0.062 and the “self-splicing fitness (ln)” value (37 °C) was 0.591 ± 0.081.

In the case of ACUGAGCAAUAUUACGGUUU, the “self-splicing fitness (ln)” value (30 °C) is reported as -3.46 ± 0.17 and the “self-splicing fitness (ln)” value (37 °C) is reported as -2.6 ± 0.11.

In the case of UCUUAGCAAUAUUACGGCCG, the “self-splicing fitness (ln)” value (30 °C) is reported as -2.11 ± 0.37 and the “self-splicing fitness (ln)” value (37 °C) is reported as -0.349 ± 0.33.

For UCCAAGCAAUAUUACGACAC, the “self-splicing fitness (ln)” value (30 °C) was -2.35 ± 0.31 and the “self-splicing fitness (ln)” value (37 °C) was -1.42 ± 0.38.

For AACCAGCAAUAUUACGACUC, the “self-splicing fitness (ln)” value (30 °C) was -0.597 ± 0.053 and the “self-splicing fitness (ln)” value (37 °C) was -0.327 ± 0.066.

With UCACAGCAAUAUUACGGAUU the “self-splicing fitness (ln)” value (30 °C) was -4.45 ± 0.13 and the “self-splicing fitness (ln)” value (37 °C) was -2.38 ± 0.096.

In the case of CCGCAGCAAUAUUACGCCGC, the “self-splicing fitness (ln)” value (30 °C) is reported as -4.21 ± 0.29 and the “self-splicing fitness (ln)” value (37 °C) is reported as -2.93 ± 0.48.

For GCUUAGCAAUAUUACGACAG, the “self-splicing fitness (ln)” value (30 °C) was -2.97 ± 0.3 and the “self-splicing fitness (ln)” value (37 °C) was -1.93 ± 0.47.

With UUCGAGCAAUAUUACGUAAA the “self-splicing fitness (ln)” value (30 °C) was -2.48 ± 0.19 and the “self-splicing fitness (ln)” value (37 °C) was -1.07 ± 0.16.

With UACCAGCAAUAUUACGUCGC the “self-splicing fitness (ln)” value (30 °C) was -2.97 ± 0.17 and the “self-splicing fitness (ln)” value (37 °C) was -1.88 ± 0.2.

For GACAAGCAAUAUUACGCUGA, the “self-splicing fitness (ln)” value (30 °C) was -2.53 ± 0.13 and the “self-splicing fitness (ln)” value (37 °C) was -1.55 ± 0.11.

For UGAUAGCAAUAUUACGUUGC, the “self-splicing fitness (ln)” value (30 °C) was -2.16 ± 0.17 and the “self-splicing fitness (ln)” value (37 °C) was -2.32 ± 0.28.

For ACGUAGCAAUAUUACGAGAC, the “self-splicing fitness (ln)” value (30 °C) was -2.37 ± 0.3.

For AGCCAGCAAUAUUACGACAC, the “self-splicing fitness (ln)” value (30 °C) was -2.83 ± 0.28 and the “self-splicing fitness (ln)” value (37 °C) was -1.55 ± 0.27.

For CCCUAGCAAUAUUACGUUUG, the “self-splicing fitness (ln)” value (30 °C) was -3.93 ± 0.16 and the “self-splicing fitness (ln)” value (37 °C) was -2.79 ± 0.18.

In the case of CUACAGCAAUAUUACGCAGG, the “self-splicing fitness (ln)” value (30 °C) is reported as -2.62 ± 0.13 and the “self-splicing fitness (ln)” value (37 °C) is reported as -3.06 ± 0.24.

In the case of AGCAAGCAAUAUUACGGUCG, the “self-splicing fitness (ln)” value (30 °C) is reported as -0.327 ± 0.1 and the “self-splicing fitness (ln)” value (37 °C) is reported as 0.74 ± 0.13.

In the case of CCUCAGCAAUAUUACGUGAC, the “self-splicing fitness (ln)” value (30 °C) is reported as -3.76 ± 0.22 and the “self-splicing fitness (ln)” value (37 °C) is reported as -2.66 ± 0.24.

For CCACAGCAAUAUUACGUCCG, the “self-splicing fitness (ln)” value (30 °C) was -0.456 ± 0.053 and the “self-splicing fitness (ln)” value (37 °C) was 0.344 ± 0.068.
